The target of test [1] is T1, hIFNγ receptor hIFNGR1 (human (endogenous in WISH)) (UniProt P15260).
T1 sequence: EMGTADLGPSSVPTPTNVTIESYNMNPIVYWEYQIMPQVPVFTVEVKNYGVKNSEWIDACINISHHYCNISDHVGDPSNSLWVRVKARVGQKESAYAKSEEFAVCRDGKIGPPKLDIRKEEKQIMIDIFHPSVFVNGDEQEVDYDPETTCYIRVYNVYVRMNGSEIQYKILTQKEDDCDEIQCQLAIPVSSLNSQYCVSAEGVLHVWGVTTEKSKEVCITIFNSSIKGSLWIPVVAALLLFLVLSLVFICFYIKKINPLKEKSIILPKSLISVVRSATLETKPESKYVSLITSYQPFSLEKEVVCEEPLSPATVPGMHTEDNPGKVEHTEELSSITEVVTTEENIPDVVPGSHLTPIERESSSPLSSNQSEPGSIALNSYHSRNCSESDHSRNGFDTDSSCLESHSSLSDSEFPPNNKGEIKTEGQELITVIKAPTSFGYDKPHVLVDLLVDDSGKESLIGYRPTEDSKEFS

In test [2] the target is T1, hIFNγ receptor hIFNGR1 (human (endogenous in WISH)). This is another data set of the same source.

Biological activity, kynurenine bioassay on WISH cells and specific biological activity after tag removal, kynurenine bioassay on WISH cells data for three substances are collected here from publication PMC5480026.

On to “His6-FLAG-hIFNγ fusion protein expressed in E. coli (from UniProt P01579 24-161) (ligand)”, for which, in test [1], the biological activity, kynurenine bioassay on WISH cells turned out to be 100 times lower.

“human interferon-gamma (hIFNγ), tag-free after enterokinase removal of the His6-FLAG tag (from UniProt P01579 24-161) (ligand)”: the specific biological activity after tag removal, kynurenine bioassay on WISH cells in test [2] was found to be 3e+07 IU/mg.

“His6-FLAG-K88Q fusion protein expressed in E. coli (from UniProt P01579 24-161) (ligand)” gave a biological activity, kynurenine bioassay on WISH cells in test [1] of 100 times lower.
